In US20240391954A1, “MC4R AGONIST PEPTIDES” (The Regents of the University of Michigan, priority 2021, published 2024):
Starred links: 1 amine or outer side, 2 acyl side, 3 side chain; linkers in the order of their positions; H or OH if unused. Positions of bridges follow the written chain, without caps; N, C: chain ends. Non-standard residues stand in square brackets, D forms with d. Primed or numbered codes have the meaning given here. dTyr(4-OMe)″ = O-methyl-D-tyrosine, COc1ccc(C[C@@H](N[*:1])C(=O)[*:2])cc1; 2Pal = N[C@@H](Cc1ccccn1)C(=O)O; Cit = NC(=O)NCCC[C@H](N)C(=O)O; Orn = NCCC[C@H](N)C(=O)O; Aib = CC(C)(N)C(=O)O

B1: CTX-1206 (peptide)
peptide: Ac-CGH[dF]RWC-NH2
modifications: disulfide 1-7
SMILES: CC(=O)N[C@H]1CSSC[C@@H](C(N)=O)NC(=O)[C@H](Cc2c[nH]c3ccccc23)NC(=O)[C@H](CCCNC(=N)N)NC(=O)[C@@H](Cc2ccccc2)NC(=O)[C@H](Cc2c[nH]cn2)NC(=O)CNC1=O
B2: CTX-1299 (peptide)
peptide: Ac-RC[Aib][Cit][dTyr(4-OMe)″]RFC-NH2
modifications: disulfide 2-8
B3: CTX-1604 (peptide)
peptide: Ac-RC[Aib][2Pal][dF]RFC-NH2
modifications: disulfide 2-8
SMILES: CC(=O)N[C@@H](CCCNC(=N)N)C(=O)N[C@H]1CSSC[C@@H](C(N)=O)NC(=O)[C@H](Cc2ccccc2)NC(=O)[C@H](CCCNC(=N)N)NC(=O)[C@@H](Cc2ccccc2)NC(=O)[C@H](Cc2ccccn2)NC(=O)C(C)(C)NC1=O
B4: CTX-1297 (peptide)
peptide: Ac-RC[Aib]R[dTyr(4-OMe)″]R[dW]C-NH2
modifications: disulfide 2-8
B5: CTX-1601 (peptide)
peptide: Ac-RC[Aib]R[dF]RFC-NH2
modifications: disulfide 2-8
B6: CTX-1298 (peptide)
peptide: Ac-RC[Aib]R[dTyr(4-OMe)″]RFC-NH2
modifications: disulfide 2-8
B7: CTX-1294 (peptide)
peptide: Ac-RCG[Cit][dF]RWC-NH2
modifications: disulfide 2-8
B8: CTX-1602 (peptide)
peptide: Ac-RC[Aib][Orn][dF]RFC-NH2
modifications: disulfide 2-8
SMILES: CC(=O)N[C@@H](CCCNC(=N)N)C(=O)N[C@H]1CSSC[C@@H](C(N)=O)NC(=O)[C@H](Cc2ccccc2)NC(=O)[C@H](CCCNC(=N)N)NC(=O)[C@@H](Cc2ccccc2)NC(=O)[C@H](CCCN)NC(=O)C(C)(C)NC1=O
B9: CTX-1290 (peptide)
peptide: Ac-RC[Aib][Cit][dF]R[dW]C-NH2
modifications: disulfide 2-8
B10: CTX-1292 (peptide)
peptide: Ac-RC[Aib]R[dF]RWC-NH2
modifications: disulfide 2-8

Biological target: T1, human MC4R receptor (human, UniProt P32245 1-332)
Assay: cell-based or functional assay

T1 sequence (P32245 whole entry): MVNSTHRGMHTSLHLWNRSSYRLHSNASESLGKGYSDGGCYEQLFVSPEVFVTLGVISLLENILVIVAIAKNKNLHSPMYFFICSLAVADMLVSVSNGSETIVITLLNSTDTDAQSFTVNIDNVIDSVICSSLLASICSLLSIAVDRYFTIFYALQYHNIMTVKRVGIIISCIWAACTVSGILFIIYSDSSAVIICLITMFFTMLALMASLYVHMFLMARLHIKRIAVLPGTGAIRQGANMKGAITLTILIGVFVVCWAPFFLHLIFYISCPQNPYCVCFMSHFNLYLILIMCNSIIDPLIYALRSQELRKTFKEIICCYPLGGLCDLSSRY

Binder | MC4R selectivity vs MC3R | MC4R selectivity vs MC1R
B1 | 23 | 
B2 | > 154 | 3.66
B3 | 0.11 | 3.66
B4 | > 3000 | 0.52
B5 | 2.3 | 0.93
B6 | 0.93 | 0.12
B7 | 11 | 111
B8 | 3.44 | 3.65
B9 | 9.23 | 10
B10 | 21 | 2.46

Biological target: T1, human MC4R receptor
Assay: cell-based or functional assay
Remark: another data set of the same source

Binder | % max activation [%] | cAMP EC50 [nM]
B1 | 101 | 
B2 | 78 | 65
B3 | 96 | 1520
B4 | 97 | 3.3
B5 | 97 | 11
B6 | 93 | 3.3
B7 | 102 | 3.5
B8 | 97 | 73
B9 | 88 | 112
B10 | 90 | 0.16

Biological target: human MC3R (human, UniProt P41968 1-323)
Assay: cell-based or functional assay

Chain of human MC3R (P41968 whole entry): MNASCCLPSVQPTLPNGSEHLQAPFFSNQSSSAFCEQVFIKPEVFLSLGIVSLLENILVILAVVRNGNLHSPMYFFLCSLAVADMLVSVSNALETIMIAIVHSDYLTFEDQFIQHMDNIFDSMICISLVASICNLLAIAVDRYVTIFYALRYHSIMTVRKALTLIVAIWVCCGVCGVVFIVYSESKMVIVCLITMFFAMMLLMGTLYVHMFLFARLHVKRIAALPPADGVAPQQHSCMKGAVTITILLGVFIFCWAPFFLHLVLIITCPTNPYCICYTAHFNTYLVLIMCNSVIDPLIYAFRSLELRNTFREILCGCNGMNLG

Binder | % max activation [%] | cAMP EC50 [nM]
B1 | 94 | 12
B2 |  | > 10000
B3 | 12 | 167
B4 |  | > 10000
B5 | 73 | 26
B6 |  | > 10000
B7 | 33 | 40
B8 | 80 | 251
B9 | 20 | 1040
B10 | 76 | 3.3
